Data from US20070184522A1, “Cell death modulation via antagonists of Fasl and Fas activation” (University of Pittsburgh of the Commonwealth System of …, priority 2004, published 2007).

Tests used:
[1] = tested on: endogenous Fas from Jurkat and Hepa 1-6 cells; test: Immunoprecipitation with anti-Fas antibody after adding AlphaMet proteins to Jurkat and Hepa 1-6 cells, Western blot with anti-His; type: binding; conditions: proteins added to Jurkat cells and Hepa 1-6 cells
Excerpt: The Met alpha but not beta chain binds to Fas (FIG. 1a). Various regions of the mouse Met cDNA corresponding to the alpha chain or the extra-cellular portion of the Met beta chain were cloned into expression vectors (pCRT7 TOPO/AlphaMet or pCRT7 TOPO/beta chain) and subjected to in vitro transcription/translation by a rabbit reticolucyte lysate translation system. Empty vector was included in each experiment as a control. The expressed proteins were labeled with ^35S-Methionine. Pull down assays were performed using Fas-Fc, a chimeric molecule which lacks the interacellular cytoplasmic domain and protein-A agarose as described in Wang et al., 2002. […] FIG. 1d depicts the amino acid sequence alignment of alpha chain with FasL, determined using the CLUSTALW, SIM+LALNVIEW, and ALIGN at ExPASy Proteomic Tools (available on the internet at us.expresly.org/tools). […] Recombinant His-tagged AlphaMet or its mutant version were expressed in E. coli, purified with chromatography, and subjected to Fas-Fc (lanes labeled Fas) or control IgG pull down experiments, and detected by Western blot using anti-His antibody that recognizes C-terminal His. […] After washing the wells, anti-human […]-HRP conjugates (1:20,000) were added to detect the bound Fas-Fc using TMD dye and the OD value was determined at a wavelength of 450 nm. […]

Fas on Jurkat cells = biological target: T1, Fas on Jurkat cells (Homo sapiens, UniProt P25445); test: Immunostaining of cell surface FasL binding on Jurkat cells; type: cell-based; conditions: 4° C. 30 minutes
T1 construct: endogenous in cells; host or cells: Jurkat
T1 sequence (P25445 26-335): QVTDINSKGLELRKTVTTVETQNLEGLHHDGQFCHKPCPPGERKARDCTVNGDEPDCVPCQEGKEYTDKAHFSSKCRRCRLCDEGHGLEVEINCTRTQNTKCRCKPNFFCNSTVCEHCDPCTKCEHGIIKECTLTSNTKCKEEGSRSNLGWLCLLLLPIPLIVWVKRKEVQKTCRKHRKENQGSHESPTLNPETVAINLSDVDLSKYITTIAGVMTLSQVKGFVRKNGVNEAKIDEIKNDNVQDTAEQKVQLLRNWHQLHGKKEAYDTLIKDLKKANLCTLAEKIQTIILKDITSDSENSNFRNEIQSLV
Description: This antibody also recognizes Fas-Fc which is also tagged at the C-terminus by His. In FIG. 2b, a fixed amount of purified recombinant Fas-ligand was added to Fas-Fc in the absence or presence of increasing amounts of AlphaMet as indicated. Samples were subjected to pull down using proteinA agarose followed by Western blot using a polyclonal rabbit anti-FasL antibody. […] Fas ligand (1 μg/ml) was coated in the wells of a microtiter plate (triplicate wells) then 1 μg/ml of Fas-Fc was added in the absence or presence of an increasing amount of the indicated polypeptide. A 13 mer YLGA polypeptide derived from FasL also was synthesized and used. The control peptide was a scrambled 13 mer. Anti human IgM-HRP conjugates were used to detect the bound Fas-Fc. […] One-way ANOVA was carried out for determination of statistical significance. […] Cells (3×10^5) were plated in 24-well plates having Poly-L-Lysine pre-treated cover glass. 2 μg/ml of Fas ligand was added and the cells were incubated for 30 min on ice. Cells were then washed by PBS twice, and were subjected to immunostaining using anti-Fas ligand antibody and fluorescent microscopy. […]
Abrogation of Fas-FasL binding by the presence of the synthetic polypeptides corresponding to the AlphaMet YLGA (SEQ ID NO:1) motif was then analyzed. […]

cell surface FasL binding to Fas (Fas on Jurkat cells): blocked
B1: alpha subunit of Met (AlphaMet), amino acid residues 1 to 306, His-tagged (receptor, mouse)
chain: MKAPTVLAPGILVLLLSLVQRSHGECKEALVKSEMNVNMKYQLPNFTAETPIQNVVLHGHHIYLGATNYIYVLNDKDLQKVSEFKTGPVLEHPDCLPCRDCSSKANSSGGVWKDNINMALLVDTYYDDQLISCGSVNRGTCQRHVLPPDNSADIQSEVHCMFSPEEESGQCPDCVVSALGAKVLLSEKDRFINFFVGNTINSSYPPGYSLHSISVRRLKETQDGFKFLTDQSYIDVLPEFLDSYPIKYIHAFESNHFIYFLTVQKETLDAQTFHTRIIRFCSVDSGLHSYMEMPLECILTEKRRKRHHHHHH
co-precipitation with anti-Fas [1]: could be co-precipitated with anti-Fas
